Where no end group is shown, it is not given here.
Key:
Assay in all cases: cell-based or functional assay
HTR2C = biological target: T1, HTR2C (UniProt P28335 33-458, limits assumed)
T1 sequence (looked up): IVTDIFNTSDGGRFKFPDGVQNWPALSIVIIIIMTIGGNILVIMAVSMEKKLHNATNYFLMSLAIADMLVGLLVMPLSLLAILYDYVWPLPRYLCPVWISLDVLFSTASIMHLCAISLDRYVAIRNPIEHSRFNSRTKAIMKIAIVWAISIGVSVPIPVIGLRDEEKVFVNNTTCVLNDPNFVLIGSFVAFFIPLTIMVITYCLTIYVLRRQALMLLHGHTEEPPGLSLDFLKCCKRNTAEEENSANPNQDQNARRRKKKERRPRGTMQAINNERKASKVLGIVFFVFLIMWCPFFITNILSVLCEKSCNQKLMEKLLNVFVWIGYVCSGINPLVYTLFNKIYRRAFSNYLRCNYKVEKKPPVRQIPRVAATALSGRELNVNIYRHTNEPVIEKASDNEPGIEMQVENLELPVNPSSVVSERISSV

MRGPRX2 = biological target: T2, MRGPRX2 (UniProt Q96LB1 1-330)
T2 sequence (looked up): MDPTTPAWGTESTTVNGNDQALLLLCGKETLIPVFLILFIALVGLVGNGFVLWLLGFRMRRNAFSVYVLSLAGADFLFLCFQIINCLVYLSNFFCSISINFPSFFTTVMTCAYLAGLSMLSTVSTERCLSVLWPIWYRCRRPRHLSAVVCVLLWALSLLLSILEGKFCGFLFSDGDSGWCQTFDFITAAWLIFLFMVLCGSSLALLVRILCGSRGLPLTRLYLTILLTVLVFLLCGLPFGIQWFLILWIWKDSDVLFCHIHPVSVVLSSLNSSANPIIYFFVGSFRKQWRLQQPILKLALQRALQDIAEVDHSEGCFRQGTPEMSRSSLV

P2RY11 = biological target: T3, P2RY11 (UniProt Q96G91 1-374)
T3 sequence (looked up): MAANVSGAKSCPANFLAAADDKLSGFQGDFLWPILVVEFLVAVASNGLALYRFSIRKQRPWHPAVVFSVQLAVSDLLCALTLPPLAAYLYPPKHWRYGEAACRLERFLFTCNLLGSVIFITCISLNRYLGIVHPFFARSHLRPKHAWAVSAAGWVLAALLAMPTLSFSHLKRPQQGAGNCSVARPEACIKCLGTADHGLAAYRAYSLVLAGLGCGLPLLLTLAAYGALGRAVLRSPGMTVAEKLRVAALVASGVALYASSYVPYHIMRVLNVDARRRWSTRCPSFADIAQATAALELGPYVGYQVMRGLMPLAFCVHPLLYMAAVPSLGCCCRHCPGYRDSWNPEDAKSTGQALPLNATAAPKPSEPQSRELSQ

TBXA2R = biological target: T4, TBXA2R (UniProt P21731 1-343, limits assumed)
T4 sequence (looked up): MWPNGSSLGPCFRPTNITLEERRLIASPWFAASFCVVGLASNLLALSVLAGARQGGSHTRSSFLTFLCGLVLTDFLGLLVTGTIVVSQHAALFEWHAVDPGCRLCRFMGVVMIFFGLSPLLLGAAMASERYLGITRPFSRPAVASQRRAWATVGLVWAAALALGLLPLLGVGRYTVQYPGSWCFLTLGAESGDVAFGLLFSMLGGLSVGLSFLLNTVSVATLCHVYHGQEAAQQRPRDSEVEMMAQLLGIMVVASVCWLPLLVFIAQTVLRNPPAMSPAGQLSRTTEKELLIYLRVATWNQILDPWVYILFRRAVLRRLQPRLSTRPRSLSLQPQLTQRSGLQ

TSHR(L) = TSHR(L) (UniProt P16473 21-764, limits assumed)
CCR9 = biological target: T5, CCR9 (UniProt P51686 1-369, limits assumed)
T5 sequence (looked up): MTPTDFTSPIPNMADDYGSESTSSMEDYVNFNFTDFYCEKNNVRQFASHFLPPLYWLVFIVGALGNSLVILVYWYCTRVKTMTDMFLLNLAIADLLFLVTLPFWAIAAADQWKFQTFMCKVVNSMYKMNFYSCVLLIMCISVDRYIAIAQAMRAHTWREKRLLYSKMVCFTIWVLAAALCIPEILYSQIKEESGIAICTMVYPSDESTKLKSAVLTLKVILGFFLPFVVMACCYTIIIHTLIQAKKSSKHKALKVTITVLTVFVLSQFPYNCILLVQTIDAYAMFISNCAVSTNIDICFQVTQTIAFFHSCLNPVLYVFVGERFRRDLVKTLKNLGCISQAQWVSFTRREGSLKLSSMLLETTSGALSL

CRTH2 = biological target: T6, CRTH2 (UniProt Q9Y5Y4 1-395)
T6 sequence (looked up): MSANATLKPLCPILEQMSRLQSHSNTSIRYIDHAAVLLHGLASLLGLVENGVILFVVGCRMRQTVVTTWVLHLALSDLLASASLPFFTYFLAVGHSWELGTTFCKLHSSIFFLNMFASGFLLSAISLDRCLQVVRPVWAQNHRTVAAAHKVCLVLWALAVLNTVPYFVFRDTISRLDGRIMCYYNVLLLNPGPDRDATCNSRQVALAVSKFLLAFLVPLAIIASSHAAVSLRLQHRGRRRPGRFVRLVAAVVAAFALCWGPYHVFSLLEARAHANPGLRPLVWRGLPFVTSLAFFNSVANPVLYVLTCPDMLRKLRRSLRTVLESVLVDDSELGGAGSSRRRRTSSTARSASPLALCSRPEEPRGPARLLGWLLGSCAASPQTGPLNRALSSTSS

CXCR4 = CXCR4 (UniProt P61073 1-352)
CXCR4, sequence (P61073 whole entry): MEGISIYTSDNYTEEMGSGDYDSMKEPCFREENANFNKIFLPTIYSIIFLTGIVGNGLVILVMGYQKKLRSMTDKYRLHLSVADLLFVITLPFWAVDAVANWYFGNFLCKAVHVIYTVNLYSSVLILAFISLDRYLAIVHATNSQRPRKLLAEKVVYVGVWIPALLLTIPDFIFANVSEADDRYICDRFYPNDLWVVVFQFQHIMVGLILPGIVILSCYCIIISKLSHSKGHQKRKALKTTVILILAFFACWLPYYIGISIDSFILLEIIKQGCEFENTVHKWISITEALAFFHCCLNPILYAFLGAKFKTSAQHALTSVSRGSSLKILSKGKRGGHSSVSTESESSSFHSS

DRD5 = DRD5 (UniProt P21918 1-477)
DRD5, sequence (P21918 whole entry): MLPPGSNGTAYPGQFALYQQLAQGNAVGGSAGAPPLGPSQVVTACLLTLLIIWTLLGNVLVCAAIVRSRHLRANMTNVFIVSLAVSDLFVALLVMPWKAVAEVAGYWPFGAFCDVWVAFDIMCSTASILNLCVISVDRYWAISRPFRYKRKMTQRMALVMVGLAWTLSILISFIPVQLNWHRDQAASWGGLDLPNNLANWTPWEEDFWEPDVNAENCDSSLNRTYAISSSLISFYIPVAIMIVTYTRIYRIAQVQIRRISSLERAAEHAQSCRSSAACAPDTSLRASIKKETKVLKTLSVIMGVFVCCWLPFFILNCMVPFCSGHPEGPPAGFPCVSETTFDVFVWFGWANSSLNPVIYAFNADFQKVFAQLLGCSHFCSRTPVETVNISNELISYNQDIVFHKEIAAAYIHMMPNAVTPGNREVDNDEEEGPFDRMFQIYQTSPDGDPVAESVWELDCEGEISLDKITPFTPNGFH

GPR109B = GPR109B (UniProt P49019 1-387)
GPR109B, sequence (P49019 whole entry): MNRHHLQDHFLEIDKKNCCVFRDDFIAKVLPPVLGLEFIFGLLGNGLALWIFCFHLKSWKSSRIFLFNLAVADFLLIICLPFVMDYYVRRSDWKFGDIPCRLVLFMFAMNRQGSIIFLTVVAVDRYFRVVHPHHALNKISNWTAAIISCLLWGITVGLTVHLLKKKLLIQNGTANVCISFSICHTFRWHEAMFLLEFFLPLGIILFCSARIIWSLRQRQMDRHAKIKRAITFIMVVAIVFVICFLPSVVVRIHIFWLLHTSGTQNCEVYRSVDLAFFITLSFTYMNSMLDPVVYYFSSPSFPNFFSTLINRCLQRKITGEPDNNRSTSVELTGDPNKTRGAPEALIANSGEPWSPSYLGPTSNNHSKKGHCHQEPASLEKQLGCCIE

Binder: QATVGDVNTDRPGLLDLK (also: synthesised on Rink amide resin, C-terminal amide not given here outright) [octadecaneuropeptide (ODN)]
- % Activity, arrestin, antagonist mode, 2.5 uM (HTR2C): 2.2%
- % Activity, arrestin, antagonist mode, 2.5 uM (MRGPRX2): -23.5%
- % Activity, arrestin, antagonist mode, 2.5 uM (P2RY11): -5.6%
- % Activity, arrestin, antagonist mode, 2.5 uM (TBXA2R): 16.2%
- % Activity, arrestin, antagonist mode, 2.5 uM (TSHR(L)): -19.1%
- % Activity, arrestin, antagonist mode, 2.5 uM (CCR9): -10.1%
- % Activity, arrestin, antagonist mode, 2.5 uM (CRTH2): 0.6%
- % Activity, arrestin, antagonist mode, 2.5 uM (CXCR4): -28.5%
- % Activity, arrestin, antagonist mode, 2.5 uM (DRD5): 4.2%
- % Activity, arrestin, antagonist mode, 2.5 uM (GPR109B): -17%
